The results in this text go back to patent US10808017B2, “Ubiquitin variants and uses therof as 53BP1 inhibitors” (The Governing Council of the University of Toronto, priority 2016, dated 2020).

Values joined by “and” are separate entries in the source; they are usually repeats but may differ in a detail not shown here. Equal values may be shown once.

The target in one assay is T1, TTC12 (Homo sapiens, UniProt Q9H892).
T1 construct: endogenous in cells; host or cells: HEK293 Flp-In/T-REx cells
T1 sequence (Q9H892 1-705): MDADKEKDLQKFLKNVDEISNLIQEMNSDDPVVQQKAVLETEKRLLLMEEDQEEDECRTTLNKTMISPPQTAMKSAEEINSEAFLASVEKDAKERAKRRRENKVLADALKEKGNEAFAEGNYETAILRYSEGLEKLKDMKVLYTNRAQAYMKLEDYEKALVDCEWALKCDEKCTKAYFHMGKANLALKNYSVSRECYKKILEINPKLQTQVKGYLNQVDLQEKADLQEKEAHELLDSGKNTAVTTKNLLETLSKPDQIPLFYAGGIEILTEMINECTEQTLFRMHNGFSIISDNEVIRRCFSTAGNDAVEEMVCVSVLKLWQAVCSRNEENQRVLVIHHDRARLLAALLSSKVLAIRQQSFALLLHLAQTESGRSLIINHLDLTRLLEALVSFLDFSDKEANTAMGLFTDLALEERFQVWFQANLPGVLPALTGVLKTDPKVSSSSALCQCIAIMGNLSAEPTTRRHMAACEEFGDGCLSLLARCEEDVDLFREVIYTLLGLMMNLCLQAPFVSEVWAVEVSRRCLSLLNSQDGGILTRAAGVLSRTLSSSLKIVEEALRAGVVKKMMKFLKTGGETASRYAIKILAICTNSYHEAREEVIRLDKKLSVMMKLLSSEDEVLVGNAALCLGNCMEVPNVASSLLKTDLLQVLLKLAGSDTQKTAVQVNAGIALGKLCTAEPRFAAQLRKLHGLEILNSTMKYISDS
The assay is described as follows: Flag IP-MS of i53/i53-DM baits: prey TTC12. The settings on record: 293T Flp-In/T-Rex extracts, LC-MS/MS, one column per replicate IP. The assay is classed as binding. Here is the method: (§1) Following immunoprecipitation of Flag-tagged i53 and i-53-DM from HEK293 Flp-In/T-REx cells, peptides were identified using LC-MS/MS. Proteins were digested in solution with trypsin (Sigma, T7575-1KT) and dried to completeness. For LC-MS/MS analysis, peptides were reconstituted in 5% formic acid and loaded onto a 12-15 cm fused silica column with pulled tip packed in-house with 3.5 μm Zorbax C18 (Agilent Technologies, Calif., USA).
(§2) i53 and i53-DM precipitates were analyzed using an LTQ (Thermo Scientific) coupled to an Agilent 1100 Series HPLC (Agilent Technologies). Peptides were eluted from the column using a 90 min period cycle with a linear gradient from 0% to 40% ACN in 0.1% formic acid. Tandem MS spectra were acquired in a data-dependent mode for the top 5 (LTQ) most abundant ions using collision-induced dissociation. Acquired spectra were searched against the human Refseq_V53 database using Mascot (Matrix Science).
(§3) 293T Flp-In/T-Rex cell lines were generated that expressed Flag-tagged i53 or i53-DM under the control of a tetracycline-inducible promoter as previously described. Nine IP-MS experiments were analyzed (3 biological replicate IPs each for control i53- and i53-DM expressing cell lines). The interacting proteins were identified by MASCOT to identify high-confidence interactors for i53. […]

The target in a further assay is T2, RPL8 (Homo sapiens, UniProt P62917).
T2 construct: Following immunoprecipitation of Flag-tagged i53 and i-53-DM from HEK293 Flp-In/T-REx cells, peptides were identified using LC-MS/MS; endogenous in cells; host or cells: HEK293 Flp-In/T-REx cells
The assay is described as follows: Flag IP-MS of i53/i53-DM baits: prey RPL8. The assay is classed as binding. The note with it: 293T Flp-In/T-Rex extracts, LC-MS/MS, one column per replicate IP. The method, then: as §1, §2, §3

Another assay addresses T3, MGA (Homo sapiens, UniProt Q8IWI9).
T3 construct: endogenous in cells; host or cells: HEK293 Flp-In/T-REx cells
Description: Flag IP-MS of i53/i53-DM baits: prey MGA. Format: binding. The settings on record: 293T Flp-In/T-Rex extracts, LC-MS/MS, one column per replicate IP. Here is the method: as §1, §2, §3

The target of a further assay is T4, TXNDC12 (Homo sapiens, UniProt O95881).
T4 construct: endogenous in cells; host or cells: HEK293 Flp-In/T-REx
T4 sequence (O95881 27-172): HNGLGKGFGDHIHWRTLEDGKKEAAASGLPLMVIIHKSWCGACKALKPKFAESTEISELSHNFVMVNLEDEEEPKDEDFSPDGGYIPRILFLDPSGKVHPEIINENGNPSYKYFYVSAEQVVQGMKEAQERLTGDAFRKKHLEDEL
Description: Flag IP-MS of i53/i53-DM baits: prey TXNDC12. The assay is classed as binding. The note with it: 293T Flp-In/T-Rex extracts, LC-MS/MS, one column per replicate IP. The method, then:
as §1, §2, §3

The target in a further assay is T5, MYCBP (Homo sapiens, UniProt Q99417).
T5 construct: endogenous in cells; host or cells: HEK293 Flp-In/T-REx
T5 sequence (Q99417 1-103): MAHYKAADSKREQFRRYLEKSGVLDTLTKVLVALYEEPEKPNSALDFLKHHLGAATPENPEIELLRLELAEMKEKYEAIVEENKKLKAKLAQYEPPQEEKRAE
Description: Flag IP-MS of i53/i53-DM baits: prey MYCBP. Format: binding. The note with it: 293T Flp-In/T-Rex extracts, LC-MS/MS, one column per replicate IP, listed as Flag-i53-DM. The method, then:
as §1, §2, §3

The next assay deals with T6, ARFGAP2 (Homo sapiens, UniProt Q8N6H7).
T6 construct: endogenous in cells; host or cells: HEK293 Flp-In/T-REx
T6 sequence (Q8N6H7 whole entry): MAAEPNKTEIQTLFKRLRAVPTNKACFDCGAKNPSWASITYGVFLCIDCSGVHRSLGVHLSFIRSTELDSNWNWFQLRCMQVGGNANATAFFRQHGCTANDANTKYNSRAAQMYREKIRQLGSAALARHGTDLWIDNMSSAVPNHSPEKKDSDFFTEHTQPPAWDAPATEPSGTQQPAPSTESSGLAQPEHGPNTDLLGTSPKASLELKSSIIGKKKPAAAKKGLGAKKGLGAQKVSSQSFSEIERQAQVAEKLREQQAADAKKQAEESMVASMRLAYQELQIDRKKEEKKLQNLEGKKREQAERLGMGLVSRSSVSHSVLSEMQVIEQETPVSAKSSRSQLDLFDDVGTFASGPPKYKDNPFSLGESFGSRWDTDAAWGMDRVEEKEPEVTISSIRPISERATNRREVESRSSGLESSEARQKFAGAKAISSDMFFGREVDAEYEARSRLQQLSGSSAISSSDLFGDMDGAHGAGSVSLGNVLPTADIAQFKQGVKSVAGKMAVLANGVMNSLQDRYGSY
Description: Flag IP-MS of i53/i53-DM baits: prey ARFGAP2. The assay is classed as binding. The settings on record: 293T Flp-In/T-Rex extracts, LC-MS/MS, one column per replicate IP. Here is the method: as §1, §2, §3

The next assay deals with T7, RPS24 (Homo sapiens, UniProt P62847).
T7 construct: endogenous in cells; host or cells: HEK293 Flp-In/T-REx
The assay is described as follows: Flag IP-MS of i53/i53-DM baits: prey RPS24. The assay is classed as binding. The note with it: 293T Flp-In/T-Rex extracts, LC-MS/MS, one column per replicate IP. The method, then: as §1, §2, §3

Another assay deals with T8, WDR96 (Homo sapiens, UniProt Q8NDM7).
T8 construct: Following immunoprecipitation of Flag-tagged i53 and i-53-DM from HEK293 Flp-In/T-REx cells, peptides were identified using LC-MS/MS; endogenous in cells; host or cells: HEK293 Flp-In/T-REx cells
Description: Flag IP-MS of i53/i53-DM baits: prey WDR96. Format: binding. The note with it: 293T Flp-In/T-Rex extracts, LC-MS/MS, one column per replicate IP. Here is the method: as §1, §2, §3

The test system of assay [1] is γ-H2AX focus formation in U2OS cells. Description: Ionizing radiation focus formation, γ-H2AX (immunofluorescence). The settings on record: transfected U2OS cells, 10 Gy, 1 h post-irradiation. Format: cell-based. Here is the method:
FIG. 3. The i53 protein inhibits 53BP1. FIG. 3A-B, U2OS cells were transfected with vectors expressing i53, its 53BP1-binding deficient mutant (DM) or an empty vector (EV) control. Cells were then X-irradiated with a 10 Gy dose and processed for immunofluorescence with the indicated antibodies 1 h post-irradiation (IR). DAPI staining (not shown) was used to delineate the outline (dashed lines) of the cell nuclei. The region in the magnified inset is indicated with a square. Quantitation of the experiment is shown in panel (a) and data is indicated as the mean±s.e.m (N=3), whereas in (b) representative micrographs are shown. Arrowheads indicate Flag-positive cells. FIG. 3C, Parental or 53BP1ΔU2OS cells transfected with vectors expressing i53, the DM mutant or an empty vector (EV) control were irradiated (10 Gy) 1 h before being processed for immunofluorescence. Cell cycle stage was assessed by Cyclin A staining. The data is presented as the mean±s.e.m.; N=3. FIG. 3D, Immunoprecipitation (IP) of Flag-tagged proteins from extracts prepared from 293T cells transfected with vectors expressing Flag-i53 or the i53-DM mutant. Proteins were separated by SDS-PAGE and immunoblotted (IB) for Flag and 53BP1. […]

For the next assay, the target named is T9, GSPT1 (Homo sapiens, UniProt P15170).
T9 construct: endogenous in cells; host or cells: HEK293 Flp-In/T-REx
T9 sequence (P15170 whole entry): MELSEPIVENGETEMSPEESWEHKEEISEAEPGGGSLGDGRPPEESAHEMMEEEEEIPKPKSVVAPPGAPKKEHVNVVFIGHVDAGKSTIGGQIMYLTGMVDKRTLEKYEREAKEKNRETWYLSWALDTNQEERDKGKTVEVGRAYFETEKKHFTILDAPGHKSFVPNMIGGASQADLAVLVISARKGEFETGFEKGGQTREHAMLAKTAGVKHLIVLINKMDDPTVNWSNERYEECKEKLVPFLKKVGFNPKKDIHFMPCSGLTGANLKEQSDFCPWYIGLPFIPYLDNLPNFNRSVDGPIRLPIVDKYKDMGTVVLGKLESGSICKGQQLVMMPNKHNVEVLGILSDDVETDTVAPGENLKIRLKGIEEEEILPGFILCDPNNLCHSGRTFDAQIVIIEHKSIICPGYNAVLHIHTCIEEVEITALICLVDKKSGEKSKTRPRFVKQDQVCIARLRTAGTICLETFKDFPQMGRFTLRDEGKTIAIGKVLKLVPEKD
The assay is described as follows: Flag IP-MS of i53/i53-DM baits: prey GSPT1. Format: binding. The note with it: 293T Flp-In/T-Rex extracts, LC-MS/MS, one column per replicate IP. Here is the method: as §1, §2, §3

T3 sequence (Q8IWI9 whole entry): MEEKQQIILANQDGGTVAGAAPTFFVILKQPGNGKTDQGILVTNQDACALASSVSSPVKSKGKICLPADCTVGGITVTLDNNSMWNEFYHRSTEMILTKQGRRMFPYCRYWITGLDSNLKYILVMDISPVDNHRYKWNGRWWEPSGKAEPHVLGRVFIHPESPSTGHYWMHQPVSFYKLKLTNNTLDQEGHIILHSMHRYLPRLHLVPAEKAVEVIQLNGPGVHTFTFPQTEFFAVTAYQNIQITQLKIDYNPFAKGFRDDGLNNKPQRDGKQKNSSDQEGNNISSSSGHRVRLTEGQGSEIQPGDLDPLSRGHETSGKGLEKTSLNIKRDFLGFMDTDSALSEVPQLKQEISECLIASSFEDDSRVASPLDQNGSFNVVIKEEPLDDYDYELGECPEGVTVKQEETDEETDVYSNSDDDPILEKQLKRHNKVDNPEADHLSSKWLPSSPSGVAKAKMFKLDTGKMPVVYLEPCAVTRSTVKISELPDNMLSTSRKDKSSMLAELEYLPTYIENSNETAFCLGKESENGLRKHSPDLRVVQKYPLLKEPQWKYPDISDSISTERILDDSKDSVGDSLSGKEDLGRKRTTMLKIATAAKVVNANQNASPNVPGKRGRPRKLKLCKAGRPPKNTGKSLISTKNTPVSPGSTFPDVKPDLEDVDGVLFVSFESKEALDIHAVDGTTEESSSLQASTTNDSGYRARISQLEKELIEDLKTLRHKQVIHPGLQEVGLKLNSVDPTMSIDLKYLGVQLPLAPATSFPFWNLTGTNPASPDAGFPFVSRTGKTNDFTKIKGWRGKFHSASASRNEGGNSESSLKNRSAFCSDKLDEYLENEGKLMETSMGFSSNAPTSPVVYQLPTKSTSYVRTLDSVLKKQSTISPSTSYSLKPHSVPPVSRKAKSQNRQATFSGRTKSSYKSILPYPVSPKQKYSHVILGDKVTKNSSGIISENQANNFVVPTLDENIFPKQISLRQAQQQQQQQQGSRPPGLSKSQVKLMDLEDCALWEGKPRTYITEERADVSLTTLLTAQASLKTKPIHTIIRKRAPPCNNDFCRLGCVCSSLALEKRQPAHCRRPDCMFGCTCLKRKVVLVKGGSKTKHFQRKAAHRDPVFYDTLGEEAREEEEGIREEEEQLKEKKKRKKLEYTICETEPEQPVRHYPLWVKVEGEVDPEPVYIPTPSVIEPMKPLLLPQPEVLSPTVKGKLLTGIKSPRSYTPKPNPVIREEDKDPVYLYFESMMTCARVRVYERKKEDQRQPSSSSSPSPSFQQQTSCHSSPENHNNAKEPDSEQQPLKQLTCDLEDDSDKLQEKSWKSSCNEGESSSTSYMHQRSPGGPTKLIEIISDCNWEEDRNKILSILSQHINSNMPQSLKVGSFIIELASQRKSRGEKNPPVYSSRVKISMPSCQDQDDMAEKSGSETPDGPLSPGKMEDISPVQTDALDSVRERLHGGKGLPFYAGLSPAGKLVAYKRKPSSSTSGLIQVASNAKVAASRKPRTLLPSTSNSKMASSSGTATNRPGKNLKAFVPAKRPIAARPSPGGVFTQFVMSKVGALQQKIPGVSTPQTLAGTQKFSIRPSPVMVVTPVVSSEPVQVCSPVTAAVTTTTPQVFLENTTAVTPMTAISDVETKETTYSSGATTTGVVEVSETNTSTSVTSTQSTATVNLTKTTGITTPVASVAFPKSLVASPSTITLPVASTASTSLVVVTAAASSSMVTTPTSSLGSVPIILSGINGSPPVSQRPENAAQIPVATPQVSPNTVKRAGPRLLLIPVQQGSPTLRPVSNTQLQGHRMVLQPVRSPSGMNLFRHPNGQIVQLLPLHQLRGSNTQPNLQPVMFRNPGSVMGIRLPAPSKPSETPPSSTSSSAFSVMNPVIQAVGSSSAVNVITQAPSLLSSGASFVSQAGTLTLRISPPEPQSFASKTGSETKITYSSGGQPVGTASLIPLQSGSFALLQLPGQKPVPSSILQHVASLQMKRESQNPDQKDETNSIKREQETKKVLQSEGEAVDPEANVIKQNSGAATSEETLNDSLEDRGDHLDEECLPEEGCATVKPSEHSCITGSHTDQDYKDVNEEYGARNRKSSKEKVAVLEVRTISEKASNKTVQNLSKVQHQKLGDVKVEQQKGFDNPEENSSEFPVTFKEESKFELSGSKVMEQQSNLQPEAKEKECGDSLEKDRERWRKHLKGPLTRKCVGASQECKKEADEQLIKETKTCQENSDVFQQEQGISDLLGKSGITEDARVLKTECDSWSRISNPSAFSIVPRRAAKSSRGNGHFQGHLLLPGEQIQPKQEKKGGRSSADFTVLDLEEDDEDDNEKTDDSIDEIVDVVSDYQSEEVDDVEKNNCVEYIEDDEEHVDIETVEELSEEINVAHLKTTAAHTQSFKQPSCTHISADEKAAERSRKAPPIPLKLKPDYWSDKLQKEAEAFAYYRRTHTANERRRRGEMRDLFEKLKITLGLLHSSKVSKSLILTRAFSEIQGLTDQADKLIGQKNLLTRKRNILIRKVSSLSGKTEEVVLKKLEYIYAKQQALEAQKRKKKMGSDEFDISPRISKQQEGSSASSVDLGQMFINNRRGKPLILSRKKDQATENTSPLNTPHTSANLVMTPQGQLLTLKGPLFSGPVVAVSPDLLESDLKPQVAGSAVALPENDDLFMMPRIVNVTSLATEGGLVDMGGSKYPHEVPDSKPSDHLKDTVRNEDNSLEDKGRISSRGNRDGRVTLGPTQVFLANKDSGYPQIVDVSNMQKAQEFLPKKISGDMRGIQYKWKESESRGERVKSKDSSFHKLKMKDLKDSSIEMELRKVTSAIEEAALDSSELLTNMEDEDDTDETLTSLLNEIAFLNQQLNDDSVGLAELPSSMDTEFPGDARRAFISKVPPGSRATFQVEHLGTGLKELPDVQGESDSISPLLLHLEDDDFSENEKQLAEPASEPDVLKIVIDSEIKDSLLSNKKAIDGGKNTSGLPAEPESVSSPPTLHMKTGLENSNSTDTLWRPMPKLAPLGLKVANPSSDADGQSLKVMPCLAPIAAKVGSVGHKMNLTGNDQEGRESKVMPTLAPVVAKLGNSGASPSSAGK

As to “i53-DM: 53BP1-binding deficient mutant of i53 (P69L, L70V)”, the “Total peptides, TTC12” value with TTC12 came to 3. For the same substance, the “Total peptides, RPL8” value with RPL8 came out at 5. Besides, the “Total peptides, MGA” value with MGA stood at 2. Further, the “Total peptides, TXNDC12” value in the assay with TXNDC12 amounted to 2. For the same substance, the “Total peptides, MYCBP” value with MYCBP was 7 and 5. Further, in the assay with ARFGAP2, the “Total peptides, ARFGAP2” value is 3. Also, in the assay with RPS24, the “Total peptides, RPS24” value came out at 4. The “Total peptides, WDR96” value with WDR96 is recorded as 4.

On to “i53: UbvG08 with C-terminal di-glycine removed and I44A mutation; genetically encoded inhibitor of 53BP1”, for which the γ-H2AX focus formation entry in assay [1] is given as “did not impact”. Moreover, in the assay with GSPT1, the “Total peptides, GSPT1” value came to 3.
